Source: US9657062B2, “Ghrelin analogues” (Zealand Pharma A/S, priority 2012, dated 2017)
[ ]: non-standard residue; d: D form. The star is where a group is joined. Octanoyl = CCCCCCCC(=O)*; Dap = NC[C@H](N)C(=O)O

target: human growth hormone secretagogue receptor type 1a (human, UniProt Q92847 1-366); experiment: cell-based or functional assay
Sequence (Q92847 whole entry): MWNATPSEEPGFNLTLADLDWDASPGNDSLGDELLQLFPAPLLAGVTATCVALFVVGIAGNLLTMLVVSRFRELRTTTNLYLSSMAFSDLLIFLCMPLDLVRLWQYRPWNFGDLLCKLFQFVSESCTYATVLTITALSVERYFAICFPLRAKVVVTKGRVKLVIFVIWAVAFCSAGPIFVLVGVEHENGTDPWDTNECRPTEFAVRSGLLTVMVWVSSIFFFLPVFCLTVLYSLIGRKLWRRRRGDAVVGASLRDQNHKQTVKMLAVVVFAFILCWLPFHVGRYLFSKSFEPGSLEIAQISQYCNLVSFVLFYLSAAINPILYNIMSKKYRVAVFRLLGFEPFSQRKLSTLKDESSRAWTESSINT

Row | Binder | EC50 (nM); Ca2+ induction in HEK293 cells stably expressing the human ghrelin receptor
1 | H-PS[Dap](Octanoyl)FLSPEHQRVQQRKESKKPPA-NH2 (SMILES CCCCCCCC(=O)NC[C@H](NC(=O)[C@H](CO)NC(=O)[C@@H]1CCCN1)C(=O)N[C@@H](Cc1ccccc1)C(=O)N[C@@H](CC(C)C)C(=O)N[C@@H](CO)C(=O)N1CCC[C@H]1C(=O)N[C@@H](CCC(=O)O)C(=O)N[C@@H](Cc1c[nH]cn1)C(=O)N[C@@H](CCC(N)=O)C(=O)N[C@@H](CCCNC(=N)N)C(=O)N[C@H](C(=O)N[C@@H](CCC(N)=O)C(=O)N[C@@H](CCC(N)=O)C(=O)N[C@@H](CCCNC(=N)N)C(=O)N[C@@H](CCCCN)C(=O)N[C@@H](CCC(=O)O)C(=O)N[C@@H](CO)C(=O)N[C@@H](CCCCN)C(=O)N[C@@H](CCCCN)C(=O)N1CCC[C@H]1C(=O)N1CCC[C@H]1C(=O)N[C@@H](C)C(N)=O)C(C)C) [H-PS-Dap(N-octanoyl)-FLSPEHQRVQQRKESKKPPA-NH2] | 0.136 nM
2 | PSSFLSPEHQRVQQRKESKKPPAKLQPR (Dap(N-octanoyl) at position 3; C-terminal amide (-NH2)) [H-PS-Dap(N-octanoyl)-FLSPEHQRVQQRKESKKPPAKLQPR-NH2] | 0.193 nM
3 | H-PS[Dap](Octanoyl)FLSP-NH2 (SMILES CCCCCCCC(=O)NC[C@H](NC(=O)[C@H](CO)NC(=O)[C@@H]1CCCN1)C(=O)N[C@@H](Cc1ccccc1)C(=O)N[C@@H](CC(C)C)C(=O)N[C@@H](CO)C(=O)N1CCC[C@H]1C(N)=O) [H-PS-Dap(N-octanoyl)-FLSP-NH2] | 0.26 nM
4 | H-PS[Dap](Octanoyl)FLS-NH2 (SMILES CCCCCCCC(=O)NC[C@H](NC(=O)[C@H](CO)NC(=O)[C@@H]1CCCN1)C(=O)N[C@@H](Cc1ccccc1)C(=O)N[C@@H](CC(C)C)C(=O)N[C@@H](CO)C(N)=O) [H-PS-Dap(N-octanoyl)-FLS-NH2] | 1.2 nM
5 | H-PS[Dap](Octanoyl)FL-NH2 (SMILES CCCCCCCC(=O)NC[C@H](NC(=O)[C@H](CO)NC(=O)[C@@H]1CCCN1)C(=O)N[C@@H](Cc1ccccc1)C(=O)N[C@@H](CC(C)C)C(N)=O) [H-PS-Dap(N-octanoyl)-FL-NH2] | 1.69 nM

Further lines, results first:

Row | EC50 (nM); Ca2+ induction in HEK293 cells stably expressing the human ghrelin receptor | Binder
6 | 0.255 nM | H-PS[NH‑CH(n-C10H21)‑C(O)]FLSPEHQRVQQRKESKKPPA-NH2 [H-PS-[NH-CH(n-C10H21)-C(O)]-FLSPEHQRVQQRKESKKPPA-NH2]
7 | 0.164 nM | H-PS[NH‑CH(n-C10H21)‑C(O)]FLSPEHQRVQQRKES-NH2 [H-PS-[NH-CH(n-C10H21)-C(O)]-FLSPEHQRVQQRKES-NH2]
8 | 0.224 nM | H-PS[Dap](Octanoyl)FLSPEHSRVSSRKESKKPPAKLSPR-NH2 (SMILES CCCCCCCC(=O)NC[C@H](NC(=O)[C@H](CO)NC(=O)[C@@H]1CCCN1)C(=O)N[C@@H](Cc1ccccc1)C(=O)N[C@@H](CC(C)C)C(=O)N[C@@H](CO)C(=O)N1CCC[C@H]1C(=O)N[C@@H](CCC(=O)O)C(=O)N[C@@H](Cc1c[nH]cn1)C(=O)N[C@@H](CO)C(=O)N[C@@H](CCCNC(=N)N)C(=O)N[C@H](C(=O)N[C@@H](CO)C(=O)N[C@@H](CO)C(=O)N[C@@H](CCCNC(=N)N)C(=O)N[C@@H](CCCCN)C(=O)N[C@@H](CCC(=O)O)C(=O)N[C@@H](CO)C(=O)N[C@@H](CCCCN)C(=O)N[C@@H](CCCCN)C(=O)N1CCC[C@H]1C(=O)N1CCC[C@H]1C(=O)N[C@@H](C)C(=O)N[C@@H](CCCCN)C(=O)N[C@@H](CC(C)C)C(=O)N[C@@H](CO)C(=O)N1CCC[C@H]1C(=O)N[C@@H](CCCNC(=N)N)C(N)=O)C(C)C) [H-PS-Dap(N-octanoyl)-FLSPEHSRVSSRKESKKPPAKLSPR-NH2]
